For this series, the target named is Jun kinase JNK1, Q91Y86.
Chain of Jun kinase JNK1, Q91Y86 (Q91Y86 whole entry): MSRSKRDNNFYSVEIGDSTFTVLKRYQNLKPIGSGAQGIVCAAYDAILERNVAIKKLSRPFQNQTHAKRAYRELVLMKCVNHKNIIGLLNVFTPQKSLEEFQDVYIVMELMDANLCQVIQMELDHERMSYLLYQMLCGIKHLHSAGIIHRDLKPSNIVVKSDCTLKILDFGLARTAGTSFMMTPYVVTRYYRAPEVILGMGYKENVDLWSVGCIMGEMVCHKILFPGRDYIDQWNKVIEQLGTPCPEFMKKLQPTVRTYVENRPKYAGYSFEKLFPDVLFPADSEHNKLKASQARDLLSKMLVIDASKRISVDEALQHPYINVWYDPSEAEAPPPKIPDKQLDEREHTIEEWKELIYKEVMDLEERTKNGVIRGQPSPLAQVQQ

B1: murine MINK (Misshapen/NIKs-related kinase) (protein)
chain: MGDPAPARSLDDIDLSALRDPAGIFELVEVVGNGTYGQVYKGRHVKTGQLAAIKVMDVTEDEEEEIKQEINMLKKYSHHRNIATYYGAFIKKSPPGNDDQLWLVMEFCGAGSVTDLVKNTKGNALKEDCIAYICREILRGLAHLHAHKVIHRDIKGQNVLLTENAEVKLVDFGVSAQLDRTVGRRNTFIGTPYWMAPEVIACDENPDATYDYRSDIWSLGITAIEMAEGAPPLCDMHPMRALFLIPRNPPPRLKSKKWSKKFTDFIDTCLIKTYLSRPPTEQLLKFPFIRDQPTERQVRIQLKDHIDRSRKKRGEKEETEYEYSGSEEEDDSHGEEGEPSSIMNVPGESTLRREFLRLQQENKSNSEALKQQQQLQQQQQRDPEAHIKHLLHQRQRRIEEQKEERRRVEEQQRREREQRKLQEKEQQRRLEDMQALRREEERRQAEREQEYKRKQLEEQRQSERLQRQLQQEHAYLKSLQQQQQQQQLQKQQQQQQQILPGDRKPLYHYGRGINPADKPAWAREVEERARMNKQQNSPLAKRSQAGAGPEPPISQASPSPPGPLSQTPPMQRPVEPQEGPHKSLVAHRVPLKPYAAPVPRSQSLQDQPTRNLAAFPASHDPDPAAVPTPTATPSARGAVIRQNSDPTSEGPGPSPNPPSWVRPDNEAPPKVPQRTSSIATALNTSGAGGSRPAQAVRASNPDLRRSDPGWERSDSVLPASHGHLPQAGSLERNRNRVGASTKLDSSPVLSPGNKAKPEDHRSRPGRPADFVLLKERTLDEAPKPPKKAMDYSSSSEEVESSEEEEEEGDGEPSEGSRDTPGGRSDGDTDSVTTMVVHDVEEISGTQPSYGGGTMVVQRTPEEERSLLLADSNGYTNLPDVVQPSHSPTENSKGQSPPTKDGGSDYQSRGLVKAPGKSSFTMFVDLGIYQPGGSGDTIPITALVGGEGGRLDQLQFDVRKGSVVNVNPTNTRAHSETPEIRKYKKRFNSEILCAALWGVNLLVGTENGLMLLDRSGQGKVYGLIGRRRFQQMDVLEGLNLLITISGKRNKLRVYYLSWLRNKILHNDPEVEKKQGWTTVGDMEGCGHYRVVKYERIKFLVIALKNSVEVYAWAPKPYHKFMAFKSFADLPHRPLLVDLTVEEGQRLKVIYGSSAGFHAVDVDSGNSYDIYIPVHIQSQITPHAIIFLPNTDGMEMLLCYEDEGVYVNTYGRIIKDVVLQWGEMPTSVAYICSNQIMGWGEKAIEIRSVETGHLDGVFMHKRAQRLKFLCERNDKVFFASVRSGGSSQVYFMTLNRNCIMNW
On to B1, for which the “levels of phosphorylated JNK in DP thymocytes after CD3/CD28 ligation (Western blot, anti-phospho-JNK1)” value is given as “MINK-deficient DP thymocytes express markedly reduced levels of phosphorylated JNK compared with control mice after CD3/CD28 ligation”.
